B1: 克隆号为9A5C5的抗体 (antibody, V domains shown)
VH: EVQLQQSGPELVKPGASVKISCKTSGYTFTEYTMHWVKQSHGKSLEWIGGINPNNGGTTYNQKFKGKATLTVDKSSSTAYMELRSLTSEDSAVYYCARDGYSFFDYWGQGTTLTVSS
VL: DIVLTQSPASLAVSLGQRATISCRASKSVSTSGYSYMHWYQQKPGQPPKLLIYLASNLESGVPARFSGSGSGTDFTLNIHPVEEEDAATYYCQHSRELFTFGSGTKLEIK
B2: 克隆号为1B12G6的抗体 (antibody, V domains shown)
VH: QVQLVQSGAEVKKPGSSVKVSCKASGGTFSSYTISWVRQAPGQGLEWLGRIIPILNIANYAQKFQGRVTITADKSTSTAYMELSSLRSEDTAVYYCARDGRASGLGATHYFDYWGQGTLVTVSS
VL: QSVLTQPPSVSGAPGQRVTISCTGSSSNIGAGYNVHWYQQLPGTAPKLLIYGNSNRPSGVPDRFSGSKSGTSASLAITGLQAEDEADYYCQSYDSSLSGSVFGGGTKLTVL
B3: 克隆号为3C6E1的抗体 (antibody, V domains shown)
VH: EVQLVESGGGLIQPGGSLGLSCAASGFTVSSNYMSWVRQAPGRGLEWVSVIYGGGSTTYADSVKGRFTISRDNSKNTLNLQMNSLRAEDTAVYYCARGGRFLHVFDIWGQGTVVTVSS
VL: QSALTQPASVSGSPGQSITISCTGTSSDIGGYNYVSWYQQHPGKAPKLMIYDVTKRPSGVSNRFSGSKSGNTASLTISGLQAEDEADYHCSSYTSSSTRWVFGGGTKLTVL
B4: 克隆号为3A7C12的抗体 (antibody, V domains shown)
VH: EVQLVESGGGLVKPGGSLRLSCAASGFTFSSYSMNWVRQAPGKGLEWVSSISSGSSYIYFADSVKGRFTISRDNAKNSLFLQMNSLRAEDTATYYCARAPLGYDSSGYFTMYYFDYWGQGTLVTVSS
VL: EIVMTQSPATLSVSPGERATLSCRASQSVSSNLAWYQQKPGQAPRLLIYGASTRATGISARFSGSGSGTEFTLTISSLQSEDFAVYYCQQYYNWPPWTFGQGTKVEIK
notes: also called 3A7C12克隆号抗体

Experiments:
[1] = molecular target: T1, 新型冠状病毒Delta突变株Spike RBD蛋白 (新型冠状病毒Delta突变株 (SARS-CoV-2 Delta …, UniProt P0DTC2 319-537)); experiment: indirect ELISA, RBD coated at 2 μg/mL
T1 construct: domain: Spike RBD; also called Delta SPIKE RBD蛋白

[2] = molecular target: T2, 新型冠状病毒Alpha突变株Spike RBD蛋白 (新型冠状病毒Alpha突变株 (SARS-CoV-2 Alpha …, UniProt P0DTC2 319-537)); experiment: indirect ELISA, RBD coated at 2 μg/mL
T2 construct: domain: Spike RBD; also called Alpha SPIKE RBD蛋白

[3] = molecular target: T3, 新型冠状病毒Beta突变株Spike RBD蛋白 (新型冠状病毒Beta突变株 (SARS-CoV-2 Beta variant), UniProt P0DTC2 319-537); experiment: indirect ELISA, RBD coated at 2 μg/mL
T3 construct: domain: Spike RBD; also called Beta SPIKE RBD蛋白

[4] = molecular target: T4, 新型冠状病毒Gamma突变株Spike RBD蛋白 (新型冠状病毒Gamma突变株 (SARS-CoV-2 Gamma …, UniProt P0DTC2 319-537)); experiment: indirect ELISA, RBD coated at 2 μg/mL
T4 construct: domain: Spike RBD; also called Gamma SPIKE RBD蛋白

[5] = molecular target: T1, 新型冠状病毒Delta突变株Spike RBD蛋白; experiment: ELISA binding experiment (Fig. 3)
[6] = molecular target: T2, 新型冠状病毒Alpha突变株Spike RBD蛋白; experiment: ELISA binding experiment (Fig. 3)
[7] = molecular target: T3, 新型冠状病毒Beta突变株Spike RBD蛋白; experiment: ELISA binding experiment (Fig. 3)
[8] = molecular target: T4, 新型冠状病毒Gamma突变株Spike RBD蛋白; experiment: ELISA binding experiment (Fig. 3)
[9] = molecular target: 新型冠状病毒Omicron突变株Spike RBD蛋白 (新型冠状病毒Omicron突变株 (SARS-CoV-2 Omicron …, UniProt P0DTC2 319-537))

Binder | binding result [1] | binding result [2] | binding result [3] | binding result [4] | binding result [5] | binding result [6] | binding result [7] | binding result [8] | Kd [9] [nM]
B1 | no binding (tested: 1 μg/mL) | no binding (tested: 1 μg/mL) | no binding (tested: 1 μg/mL) | no binding (tested: 1 μg/mL) | – | – | – | – | –
B2 | no binding (tested: 1 μg/mL) | no binding (tested: 1 μg/mL) | no binding (tested: 1 μg/mL) | no binding (tested: 1 μg/mL) | – | – | – | – | –
B3 | no binding (tested: 1 μg/mL) | no binding (tested: 1 μg/mL) | no binding (tested: 1 μg/mL) | no binding (tested: 1 μg/mL) | – | – | – | – | –
B4 | – | – | – | – | no binding | no binding | no binding | no binding | 9.07

From CN114702578A (BAISI MEDICAL DIAGNOSTICS TECH BEIJING CO LTD, dated 2022)
